“Also recorded” adds a separate entry of the source. [ ]: non-standard residue; d: D form.
Experiments:
human CRP = molecular target: T1, human CRP (Homo sapiens, UniProt P02741); experiment: Block of the inhibitory effect of human CRP on leptin-stimulated STAT3 phosphorylation in HEK-293 OB-Rb cells; format: cell-based; conditions: for restoration of leptin-stimulated STAT3 activation in the presence of human CRP: hexamer at concentrations as high as 0.8 μM, human CRP 8 μg/ml, human leptin 2 nM, 1-hour pre-incubation
T1 construct: purchased CHEMICON International
T1 sequence (P02741 19-224): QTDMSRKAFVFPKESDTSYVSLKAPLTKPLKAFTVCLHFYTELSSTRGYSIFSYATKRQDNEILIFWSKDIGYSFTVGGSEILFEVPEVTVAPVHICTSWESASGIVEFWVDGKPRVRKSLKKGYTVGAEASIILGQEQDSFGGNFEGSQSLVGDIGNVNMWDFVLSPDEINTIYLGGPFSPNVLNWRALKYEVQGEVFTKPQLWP
Protocol: In the in vitro experiment, Peptide-E was pre-incubated with human CRP for 30 minutes before being mixed with human leptin for an additional 45 minutes. The resultant mixture was then added to the HEK-293 cells overexpressing the long form leptin receptors, OB-Rb (FIG. 9). After a 30 minute incubation, the cells were harvested in a protein extraction buffer (Zhao, et al., 1997, PNAS). The signaling of leptin in the cells, measured by its ability to stimulate tyrosine phosphorylation on STAT3 in a western blot assay, was evaluated.
Using a design similar to the in vitro experiment described in Example 5, the hexamer of the '388 patent (SEQ ID NO:3) was pre-incubated with human CRP (8 μg/ml) and human leptin (2 nM) for 1-hour. The resultant mixture was then added to the HEK-293 cells overexpressing the long form leptin receptors, OB-Rb (FIG. 12). After a 30 minute incubation, the cells were harvested in a protein extraction buffer. The signaling of human leptin in the cells, measured by its ability to stimulate tyrosine phosphorylation on STAT3 in a western blot assay, was evaluated.

ob/ob mice = experiment: Co-infusion of Peptide E with human CRP and leptin into ob/ob mice; format: in vivo, mouse; conditions: for restoration of leptin effect on body weight / restoration of leptin effect on food-intake: Pep-E 24 or 48 μg/day/mouse with human CRP 48 and leptin 12 μg/day/mouse
Protocol: FIG. 10. […] Infusion dosages for human CRP and leptin were 48 μg/day/mouse and 12 μg/day/mouse, respectively. The infusion rate for Pep-E (P) was 24 μg/day/mouse (medium dosage, abbreviated “m”) and 48 μg/day/mouse (high dosage, abbreviated “h”). Food-intake (FIGS. 10(A & C)) and body weight (FIGS. 10(B & D)) were monitored daily throughout the infusion. The arrows in A-D indicate the day of surgery. At the end of infusion, blood samples were collected for the measurement of blood-glucose, human CRP, and human leptin. The serum concentrations of human CRP and human leptin were 0.85±0.1 μg/ml and 18 ng±2 ng/ml, respectively. […] The glucose concentration from the mice infused with human CRP and leptin, but NOT with Pep-E was also shown.
In the in vivo experiment, the Peptide E polypeptide was co-infused through mini-osmotic pumps with human CRP and leptin into the ob/ob mice. Food-intake (24 hours) and body weight were followed during the infusion period (FIG. 10A-10D).

[1] = tested on: leptin-induced tyrosine phosphorylation of STAT3; experiment: Leptin-induced STAT3 tyrosine phosphorylation in HEK293 cells expressing OB-Rb (western blot), human leptin; format: cell-based; conditions: human leptin 2 nM, protein pre-incubated with leptin, HEK293 OB-Rb cells
Protocol: (§1) 2. Signaling Studies: A HEK293 cell line stably expressing the human long-form receptor, OB-Rb (M. Friedman-Einat et al., 2003, Regul. Pept. 111, 77) was serum starved for 2-h before addition of leptin and CRP. Leptin (SEQ ID NO:4), in the presence or absence of C-reactive proteins, was pre-incubated in μ-MEM for 30 minutes at 37° C. before applied to the cells. After a 30-incubation with leptin (SEQ ID NO:4), the cells were harvested in a previously described protein lysis buffer. A. Z. Zhao et al., 1997, Proc. Natl. Acad. Sci. U.S.A. 94, 322. The protein extract was subjected to a western blot assay with an anti-phospho-STAT3 specific antibody (Cell Signaling, Beverly, Mass.). For studies involving the primary hypothalamic neurons, the rat hypothalamus was surgically isolated right after euthanasia, and immediately placed in the DMEM for incubation with leptin in the presence or absence of CRP.
(§2) To determine if the interaction between CRP and leptin influences cellular actions of leptin, we assessed the ability of leptin to stimulate tyrosine phosphorylation of STAT3 and PI3-kinase activity in the presence of CRP in vitro.

[2] = tested on: mouse leptin-induced STAT3 activation; experiment: Leptin-induced STAT3 tyrosine phosphorylation in HEK293 cells expressing OB-Rb, mouse leptin; format: cell-based; conditions: murine leptin 2 nM
Protocol: as §1, §2

mouse leptin = mouse leptin (Mus musculus, UniProt P41160); experiment: Immunoprecipitation of rat CRP with mouse leptin; format: binding; conditions: leptin and CRP mixture and rat serum
Chain of mouse leptin (P41160 22-167): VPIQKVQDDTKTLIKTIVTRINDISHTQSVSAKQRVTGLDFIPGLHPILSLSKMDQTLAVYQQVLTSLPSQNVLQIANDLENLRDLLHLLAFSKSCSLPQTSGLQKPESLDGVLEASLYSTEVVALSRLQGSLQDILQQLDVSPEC
Protocol: Direct binding of […] and leptin in an immunoprecipitation assay was determined. Rat CRP was purified from fresh rat serum to >95% employing a previously established affinity-purification protocol. J. Tseng et al., 1988, Mol. Immunol. 25, 679. This purity is very similar to the human CRP preparation obtained from a commercial source (CHEMICON International). The purified human- and rat-CRP proteins were pre-mixed with recombinant human and mouse leptin, respectively, before addition of specific antibodies against human- and mouse-leptin. The concentrations of CRP and leptin in the precipitation reaction were all within the physiological ranges (M. B. Schulze et al., 2004, Diabetes Care 27, 889; T. Kazumi et al., 2003, Metabolism 52, 1113).
In parallel experiments, recombinant leptin was also pre-mixed with human- or rat serum to allow for potential direct interactions prior to immunoprecipitation. The precipitation pellets obtained were subjected to western blot assays with specific anti-CRP antibodies. […] Because of the similarities between rat CRP and human CRP in the binding to leptin and of our main interest in the relevance to human obesity, focus was placed on potential functional effects of human CRP in the subsequent experiments.

[3] = tested on: insulin-stimulated PI3-kinase; experiment: Insulin-stimulated PI3-kinase activity in differentiated 3T3-L1 adipocytes (specificity control); format: cell-based

For “NH2-S-C-H-L-P-W-COOH (H-SCHLPW-OH; listed as Homo sapiens) [SEQ ID NO:3, 6 amino acid polypeptide reported in U.S. Pat. No. 6,777,388 to Grasso, et al]”, the “restoration of leptin-stimulated STAT3 activation in the presence of human CRP” value (human CRP) was “unable to block the negative effect of human CRP on the signaling capability of human leptin; also recorded: failed to restore leptin-stimulated STAT3 activation”.

With “NH2—W—P—L—H—C—S—COOH (H-[dW][dP][dL][dH][dC][dS]-OH; SMILES CC(C)C[C@@H](NC(=O)[C@H]1CCCN1C(=O)[C@H](N)Cc1c[nH]c2ccccc12)C(=O)N[C@H](Cc1c[nH]cn1)C(=O)N[C@H](CS)C(=O)N[C@H](CO)C(=O)O; listed as Homo sapiens) [SEQ ID NO:5, D-form hex-peptide reported by Grasso, et al]” the “restoration of leptin-stimulated STAT3 activation in the presence of human CRP” value (human CRP) was “failed to restore leptin-stimulated STAT3 activation”.

For “Peptide E: chemically synthesized polypeptide of 27 amino acids representing a segment of human leptin (SEQ ID NO:2) (LAFSKSCHLPWASGLETLDSLGGVLEA; listed as Homo sapiens)”, the “STAT phosphorylation by the peptide itself” value (human CRP; Peptide-E by itself) was “did not induce any changes in STAT phosphorylation”, the “restoration of leptin effect on body weight” value (ob/ob mice) was “could restore both of these functions of human leptin” and the “restoration of leptin effect on food-intake” value (ob/ob mice) was “could restore both of these functions of human leptin”. For the same molecule, the “restoration of leptin effect on body weight” value (ob/ob mice; listed as Peptide-E) was “restored the physiological effects of human leptin”, the “restoration of leptin effect on food-intake” value (ob/ob mice; listed as Peptide-E) was “restored the physiological effects of human leptin” and the “restoration of leptin effect on blood glucose” value (ob/ob mice; end of infusion, high dosage of Pep-E 48 μg/day/mouse with human CRP and leptin) was “could restore the beneficial effect of human leptin on blood glucose”.

In the case of “human serum amyloid P-component (SAP): human serum amyloid P-component, control protein [reference compound]”, the “effect on leptin-induced tyrosine phosphorylation of STAT3” value [1] is reported as “did not significantly alter leptin-stimulated phosphorylation of STAT3”.

B1: rat CRP: rat C-reactive protein purified from fresh rat serum to >95% (protein)
chain: HEDMSKQAFVFPGVSATAYVSLEAESKKPLEAFTVCLYAHADVSRSFSIFSYATKTSFNEILLFWTRGQGFSIAVGGPEILFSASEIPEVPTHICATWESATGIVELWLDGKPRVRKSLQKGYIVGTNASIILGQEQDSYGGGFDANQSLVGDIGDVNMWDFVLSPEQINAVYVGRVFSPNVLNWRALKYETHGDVFIKPQLWPLTDCCES
In the case of B1, the “effect on mouse leptin-induced STAT3 phosphorylation” value [2] is reported as “attenuate the tyrosine-phosphorylation of STAT3; also recorded: higher concentrations of rat- than human-CRP are required to achieve the equivalent effects; also recorded: Attenuating effects”, the “direct binding to mouse leptin (immunoprecipitation with anti mouse-leptin, anti-CRP western blot)” value (mouse leptin) is reported as “could also bring down rat CRP” and the “effect on insulin-stimulated PI3-kinase activity” value [3] is reported as “did not block insulin-stimulated PI3-kinase”.

From patent publication US7629315B2, “Compositions for blocking the inhibitory effect of human CRP on human leptin” (University of Pittsburgh of the Commonwealth System of …, priority 2005, dated 2009)
